Measured values as given in publication doi:10.1101/2023.07.10.548257 (bioRxiv, 2024).
Substitutions are numbered along the chain they refer to. One block for each molecule: values may come before it.

Assays:
full-length SHP2^WT = molecular target: T1, full-length SHP2^WT (Homo sapiens, UniProt Q06124); assay: SHP2 activation assay using phosphopeptides (DiFMUP), SHP2 WT; format: biochemical; details: activation of full-length SHP2 WT (0.05 nM) by phosphopeptide; DiFMUP substrate; 60 mM HEPES pH 7.2, 75 mM KCl, 75 mM NaCl, 1 mM EDTA, 0.05% Tween-20, 0.5 mM TCEP; fluorescence read every 25 s for 6 min; mean of N (column N)
T1 construct: Full-length SHP2 constructs were diluted in assay buffer; His6-TEV (N, cleaved yes); made in house; host or cells: E. coli BL21(DE3)
T1 sequence (Q06124 1-593): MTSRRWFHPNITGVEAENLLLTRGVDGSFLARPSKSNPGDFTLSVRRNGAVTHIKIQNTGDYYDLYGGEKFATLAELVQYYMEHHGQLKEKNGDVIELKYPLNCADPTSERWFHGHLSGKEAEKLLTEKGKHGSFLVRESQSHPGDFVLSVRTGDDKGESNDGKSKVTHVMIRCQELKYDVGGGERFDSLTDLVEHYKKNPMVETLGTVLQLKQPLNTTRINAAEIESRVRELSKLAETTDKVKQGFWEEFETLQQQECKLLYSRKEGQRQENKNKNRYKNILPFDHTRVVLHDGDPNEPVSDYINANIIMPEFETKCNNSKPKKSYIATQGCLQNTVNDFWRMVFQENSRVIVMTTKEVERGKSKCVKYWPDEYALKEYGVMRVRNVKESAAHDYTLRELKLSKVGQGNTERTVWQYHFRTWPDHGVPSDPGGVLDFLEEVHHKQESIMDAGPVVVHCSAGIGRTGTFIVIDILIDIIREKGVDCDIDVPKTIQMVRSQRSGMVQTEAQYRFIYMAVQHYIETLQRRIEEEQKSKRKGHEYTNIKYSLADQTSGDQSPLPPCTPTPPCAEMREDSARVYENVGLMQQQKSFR
Description: SHP2 activation assays using phosphopeptides
Full-length SHP2 constructs were diluted in assay buffer (60 mM HEPES pH 7.2, 75 mM KCl, 75 mM NaCl,1 mM EDTA, 0.05% Tween-20, with 0.5 mM TCEP freshly added) to a 2X concentration of 0.1 nM. Peptides were serially diluted in assay buffer, with the last point of the concentration series fully without peptide. 15 μL of peptide and 15 μL of 800 μM DiFMUP was added to a black 96-well half area plate. Right before starting the plate reader assay, 30 μL SHP2 was added to each well a Supplementary Information - page 4 of 18 […]
final concentration of 0.05nM. Kinetic measurements (Ex 358/Em […]) were taken on a BioTek Neo2 plate reader every 25 seconds for 6 minutes. […]
(§1) OD600 reached 0.5. 20 mL of cell suspension was induced at 25 °C using a final concentration of 0.4% arabinose until the OD600 ~ 1 (after approximately 4 hours). The cells were spun down at 4000 rpm for 15 minutes, and the pellet was resuspended in PBS so that the OD600 ~1.5. The cells were stored in the fridge and used within a week.
(§2) For each sample, 75 μL of Dynabeads™ FlowComp™ Flexi Kit were washed twice in 1 mL SH2 buffer (50 mM HEPES pH 7.5, 150 mM NaCl, 1 mM TCEP, and 0.2% BSA) on a magnetic rack.
(§3) The beads were then resuspended in 75 μL of SH2 buffer. SH2 domains were thawed quickly and 20 μM of protein was added to the beads. SH2 buffer was added up to 150 μL, and the suspension was incubated for 1 hour at 4 °C while rotating. After 1 hour, the suspension was placed on a magnetic rack and washed twice with 1 mL SH2 buffer.
(§4) Preparing the phosphorylated cells
(§5) 150 μL of prepared cells per sample were spun down for 4000 rpm for 5 minutes at 4 °C.
(§6) Kinase screen buffer was prepared (50 mM Tris, 10 mM magnesium chloride, 150 mM sodium chloride; add 2 mM sodium orthovanadate and 1 mM TCEP fresh) and the cells of each sample were resuspended in 100 μL kinase screen buffer. Kinases c-Src, c-Abl, AncSZ, Eph1B were added to a final concentration of 2.5 µM each, creatine phosphate was added to a final concentration of 5 mM, and phosphokinase was added to a final concentration of 50 µg/mL. The suspension was incubated at 37 °C for 5 minutes before ATP was added to a final concentration of 1 mM. This mixture was incubated at 37 °C for 3 hours. After 3 hours, EDTA was added to a final concentration of 25 mM to quench the reaction. The input library control sample was not phosphorylated. These cells were spun down at 4000 rpm for 15 minutes at 4 °C. The cells were then resuspended in 100 µL of SH2 buffer + 0.1% BSA. Phosphorylation of the cells was confirmed by labeling with the PY20-PerCP-eFluor 710 pan-phosphotyrosine antibody followed by analysis via flow cytometry.
(§7) Enriching for cells displaying high-affinity phosphopeptide ligands
(§8) 100 μL of phosphorylated cells were mixed with 75 µL SH2-beads for 1 hour at 4 °C while rotating. After 1 hour, samples were placed on a magnetic rack, supernatant was removed and 1 mL SH2 buffer was added to each sample. This was rotated for 30 minutes at 4 °C to wash the beads.
(§9) After this wash, the beads were placed on a magnetic rack, the supernatant was removed and 50 µL […]
(§10) Preparing sequencing samples & deep sequencing
(§11) All SH2-selected samples and the input library control were resuspended in 50 µL MilliQ water, vortexed, and boiled for 10 minutes at 100 °C. The boiled lysate was used as the DNA template in a PCR reaction using the TruSeq-eCPX-Fwd and TruSeq-eCPX-Rev primers. The mixture resulting from this PCR was used directly into a second PCR to append Illumina sequencing adaptors and Supplementary Information - page 5 of 18

full-length SHP2^T42A = molecular target: T2, full-length SHP2^T42A (Homo sapiens, UniProt Q06124, T42A); assay: SHP2 activation assay using phosphopeptides (DiFMUP), SHP2 T42A; format: biochemical; details: activation of full-length SHP2 T42A (0.05 nM) by phosphopeptide; DiFMUP substrate; HEPES pH 7.2 assay buffer; mean of N (column N)
T2 construct: Full-length SHP2 constructs were diluted in assay buffer; His6-TEV (N, cleaved yes); made in house; host or cells: E. coli BL21(DE3)
T2 sequence (Q06124 1-593 T42A): T1 sequence (Q06124 1-593) with T42A

[1] = molecular target: SHP2 N-SH2 domain, wild type (N-SH2-Avi-biotin) (UniProt Q06124); assay: peptide display screen (pTyr-Var Library); details: N = 2 independent library transformations and screens; parent: est. 1.3; read off a plot
SHP2 C-SH2^WT domain = molecular target: T3, SHP2 C-SH2^WT domain (Homo sapiens, UniProt Q06124); assay: SH2 specificity profiling by bacterial peptide display (Human pTyr and pTyr-Var Libraries), C-SH2 WT; format: binding
T3 construct: SHP2 SH2 domains were cloned into a His6-SUMO-SH2-Avi construct; His6-SUMO (N, cleaved yes); made in house; host or cells: E. coli C43(DE3), co-expressed with BirA
T3 sequence (Q06124 112-216 limits assumed): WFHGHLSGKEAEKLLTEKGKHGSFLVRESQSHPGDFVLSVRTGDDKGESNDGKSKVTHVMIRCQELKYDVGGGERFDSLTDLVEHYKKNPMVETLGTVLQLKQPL
Description: (§12) Next, we characterized the sequence specificity of the SH2 mutants relative to their wild-type counterparts in a large-scale, unbiased screen. […] For each peptide in a library, an enrichment score is calculated from the deep sequencing data as the frequency of the peptide in the SH2-enriched sample divided by the frequency of the peptide in the unenriched input sample ([34]). For this study, we used two largely non-overlapping libraries, both encoding known human phosphosites. […] The Human pTyr Library consists of 1,916 sequences derived from known phosphorylation sites in the human proteome, along with another 617 control mutants ([35]). […]
(§13) SH2 specificity profiling using bacterial peptide display
(§14) Preparation of bacterial cells
as §1, with “Electrocompetent MC1061 cells were transformed with ~100 ng of the respective library. After 1 hour recovery in 1 mL LB, cells were further diluted into 250 mL LB + 0.1% chloramphenicol. 1.8 mL of overnight culture was used to inoculate 100 mL LB + 0.1% chloramphenicol, and grown until OD600 reached” for “OD600 reached”
as §2, §3, §4, §5, §6, §7, §8, §9, §10
as §11, with “18 […]” for “18”
(§15) unique 5’ and 3’ indices to each sample (D700 and D500 series primers). The resulting PCR mixtures […]

SHP2 N-SH2^WT domain = molecular target: T4, SHP2 N-SH2^WT domain (Homo sapiens, UniProt Q06124); assay: SH2 specificity profiling by bacterial peptide display (Human pTyr and pTyr-Var Libraries), N-SH2 WT; format: binding
T4 construct: SHP2 SH2 domains were cloned into a His6-SUMO-SH2-Avi construct; His6-SUMO (N, cleaved yes); made in house; host or cells: E. coli C43(DE3), co-expressed with BirA
T4 sequence (Q06124 6-102 limits assumed): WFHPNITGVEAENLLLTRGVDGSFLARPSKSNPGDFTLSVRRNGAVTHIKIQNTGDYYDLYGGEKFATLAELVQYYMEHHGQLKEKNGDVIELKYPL
Description: as §12, §13, §14
as §1, with “Electrocompetent MC1061 cells were transformed with ~100 ng of the respective library. After 1 hour recovery in 1 mL LB, cells were further diluted into 250 mL LB + 0.1% chloramphenicol. 1.8 mL of overnight culture was used to inoculate 100 mL LB + 0.1% chloramphenicol, and grown until OD600 reached” for “OD600 reached”
as §2, §3, §4, §5, §6, §7, §8, §9, §10
as §11, with “18 […]” for “18”
as §15

[2] = average enrichment score above cutoff of 3.2 (true binder)

Molecule: CC[C@H](C)[C@H](NC(=O)[C@@H](NC(=O)[C@H](C)NC(=O)[C@H](Cc1ccc(OP(=O)(O)O)cc1)NC(=O)[C@@H](NC(=O)[C@@H]1CCCN1C(=O)[C@H](CCC(=O)O)NC(=O)[C@@H]1CCCN1C(=O)[C@H](CO)NC(=O)[C@H](C)NC(C)=O)[C@@H](C)CC)[C@@H](C)O)C(=O)N[C@@H](CC(=O)O)C(=O)N[C@@H](Cc1ccccc1)C(=O)N[C@@H](CC(=O)O)C(N)=O
EC50 (full-length SHP2^WT): 2820 nM
EC50 (full-length SHP2^T42A): 1460 nM

Molecule: CC(=O)NCC(=O)N[C@@H](CC(=O)O)C(=O)N[C@@H](CCCCN)C(=O)N[C@@H](CCC(N)=O)C(=O)N[C@H](C(=O)N[C@@H](CCC(=O)O)C(=O)N[C@@H](Cc1ccc(OP(=O)(O)O)cc1)C(=O)N[C@@H](CC(C)C)C(=O)N[C@@H](CC(=O)O)C(=O)N[C@@H](CC(C)C)C(=O)N[C@@H](CC(=O)O)C(=O)N[C@@H](CC(C)C)C(=O)N[C@@H](CC(=O)O)C(N)=O)C(C)C
EC50 (full-length SHP2^WT): 26200 nM

enrichment (fselected / finput) [1]: 1.3
Molecule: ALDH2 pTyr 502 peptide FGLQA-pY-TEVKT E504K

>3.2 --> C-WT-Ave (SHP2 C-SH2^WT domain; [2]): FALSE (>3.2 -->)
C-WT-Ave (enrichment score) (SHP2 C-SH2^WT domain; bacterial peptide display, frequency in enriched sample / input, average, Human pTyr Library N = 3, pTyr-Var Library N = 2): 0.8982
>3.2 --> N-WT-Ave (SHP2 N-SH2^WT domain; [2]): FALSE (>3.2 -->)
N-WT-Ave (enrichment score) (SHP2 N-SH2^WT domain; bacterial peptide display, enzymatically phosphorylated displayed peptides, SH2-coated beads, deep sequencing, frequency in enriched sample / input, average, Human pTyr Library N = 3, pTyr-Var Library N = 2): 0.9356
Molecule: MKGDAARYLAEVATG (bacterially displayed) [1433G_HUMAN_133_YA]
